Results reported in publication doi:10.1101/2023.01.19.524411 (bioRxiv, 2023).

Biological target: the molecule itself
Test: native gel or EMSA

B1: flag-tagged STING (stimulator of interferon genes) (natural protein, UniProt Q3TBT3 1-378, looked up)
chain: MPYSNLHPAIPRPRGHRSKYVALIFLVASLMILWVAKDPPNHTLKYLALHLASHELGLLLKNLCCLAEELCHVQSRYQGSYWKAVRACLGCPIHCMAMILLSSYFYFLQNTADIYLSWMFGLLVLYKSLSMLLGLQSLTPAEVSAVCEEKKLNVAHGLAWSYYIGYLRLILPGLQARIRMFNQLHNNMLSGAGSRRLYILFPLDCGVPDNLSVVDPNIRFRDMLPQQNIDRAGIKNRVYSNSVYEILENGQPAGVCILEYATPLQTLFAMSQDAKAGFSREDRLEQAKLFCRTLEEILEDVPESRNNCRLIVYQEPTDGNSFSLSQEVLRHIRQEEKEEVTMNAPMTSVAPPPSVLSQEPRLLISGMDQPLPLRTDLI
stoichiometry N: 2
